From patent publication US20050244864A1, “Development and use of fluorescent probes of unbound analytes” (priority 2004, published 2005)

What was measured:
Assay type in all cases: binding
[1] = Probe fluorescence ratio response to palmitoleate:BSA complex, relative to ADIFAB2 (ΔR/ΔRAD2); settings: fluorescence response (R-Ro) relative to ADIFAB2
[2] = Probe fluorescence ratio response to palmitate:BSA complex, relative to ADIFAB2 (ΔR/ΔRAD2); settings: fluorescence response (R-Ro) relative to ADIFAB2; palmitate
Method in brief: (§1)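 Complexes clamp unbound FFA at fixed levels (ΔR ≈0.4 by ADIFAB2, [FFAu] 100–1000 nM). Plate wells: complex or FFA-free BSA at 6 μM BSA in HEPES; probe added after background read. Ex 375/em 550 and 457 nm; ratio R = F550/F457.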

[3] = Probe fluorescence ratio response to stearate:BSA complex, relative to ADIFAB2 (ΔR/ΔRAD2); settings: fluorescence response (R-Ro) relative to ADIFAB2
[4] = Probe fluorescence ratio response to linoleate:BSA complex, relative to ADIFAB2 (ΔR/ΔRAD2); settings: fluorescence response (R-Ro) relative to ADIFAB2; linoleate
Method in brief: as §1

[5] = Probe fluorescence ratio response to linolenate:BSA complex, relative to ADIFAB2 (ΔR/ΔRAD2); settings: fluorescence response (R-Ro) relative to ADIFAB2; linolenate
Method in brief: as §1

[6] = Probe fluorescence ratio response to oleate:BSA complex, relative to ADIFAB2 (ΔR/ΔRAD2); settings: fluorescence response (R-Ro) relative to ADIFAB2; oleate
Method in brief: as §1

[7] = Probe fluorescence ratio response to arachidonate:BSA complex, relative to ADIFAB2 (ΔR/ΔRAD2); settings: fluorescence response (R-Ro) relative to ADIFAB2; arachidonate
Method in brief: as §1

Row | Molecule | ΔR/ΔRAD2 POA [1] | ΔR/ΔRAD2 PA [2] | ΔR/ΔRAD2 SA [3] | ΔR/ΔRAD2 LA [4] | ΔR/ΔRAD2 LNA [5] | ΔR/ΔRAD2 OA [6] | ΔR/ΔRAD2 AA [7]
1 | L2P7F4: acrylodan-labeled rI-FABP-L72A mutein: M18 V, G31 V, F55 WT, A73 I (protein, UniProt P02693 2-132, looked up, variant M18V G31V L72A A73I, acrylodan label, acrylodan-labeled rI-FABP-L72A mutein: M18 V, G31 V, F55 WT, A73 I) Fatty acid-binding protein, …: AFDGTWKVDRNENYEKFVEKMGINVVKRKLVAHDNLKLTITQEGNKFTVKESSNFRNIDVVFELGVDFAYSAIDGTELTGTWTMEGNKLVGKFKRVDNGKELIAVREISGNELIQTYTYEGVEAKRIFKKE | 1.3 | 1.3 | 0.3 | 1.1 | 1.5 | 0.6 | 0.8
2 | L2P11B4: acrylodan-labeled rI-FABP-L72A mutein: M18 V, G31 A, F55 WT, A73 W (protein, UniProt P02693 2-132, looked up, variant M18V G31A L72A A73W, acrylodan label, acrylodan-labeled rI-FABP-L72A mutein: M18 V, G31 A, F55 WT, A73 W) Fatty acid-binding protein, …: AFDGTWKVDRNENYEKFVEKMGINVVKRKLAAHDNLKLTITQEGNKFTVKESSNFRNIDVVFELGVDFAYSAWDGTELTGTWTMEGNKLVGKFKRVDNGKELIAVREISGNELIQTYTYEGVEAKRIFKKE | 3.1 | 2.2 | 0.7 | 2.6 | 2.8 | 1.9 | 1.8
3 | L2P12C5: acrylodan-labeled rI-FABP-L72A mutein: M18 I, G31 I, F55 M, A73 I (protein, UniProt P02693 2-132, looked up, variant M18I G31I F55M L72A A73I, acrylodan label) Fatty acid-binding protein, …: AFDGTWKVDRNENYEKFIEKMGINVVKRKLIAHDNLKLTITQEGNKFTVKESSNMRNIDVVFELGVDFAYSAIDGTELTGTWTMEGNKLVGKFKRVDNGKELIAVREISGNELIQTYTYEGVEAKRIFKKE | 1.9 | 1.5 | 0.4 | 1.5 | 1.7 | 0.8 | 1.3
4 | L2P8A5: acrylodan-labeled rI-FABP-L72A mutein: M18 V, G31 A, F55 W, A73 W (protein, UniProt P02693 2-132, looked up, variant M18V G31A F55W L72A A73W, acrylodan label) Fatty acid-binding protein, …: AFDGTWKVDRNENYEKFVEKMGINVVKRKLAAHDNLKLTITQEGNKFTVKESSNWRNIDVVFELGVDFAYSAWDGTELTGTWTMEGNKLVGKFKRVDNGKELIAVREISGNELIQTYTYEGVEAKRIFKKE | 2.0 | 1.5 | 0.4 | 1.6 | 1.9 | 0.9 | 1.1
5 | L2P23A4: acrylodan-labeled rI-FABP-L72A mutein: M18 V, G31 I, F55 L, A73 V (protein, UniProt P02693 2-132, looked up, variant M18V G31I F55L L72A A73V, acrylodan label) Fatty acid-binding protein, …: AFDGTWKVDRNENYEKFVEKMGINVVKRKLIAHDNLKLTITQEGNKFTVKESSNLRNIDVVFELGVDFAYSAVDGTELTGTWTMEGNKLVGKFKRVDNGKELIAVREISGNELIQTYTYEGVEAKRIFKKE | 2.8 | 1.9 | 1.2 | 3.1 | 2.6 | 2.3 | 2.8
6 | L2P21G3: acrylodan-labeled rI-FABP-L72A mutein: M18 I, G31 M, F55 M, A73 WT (protein, UniProt P02693 2-132, looked up, variant M18I G31M F55M L72A, acrylodan label, acrylodan-labeled rI-FABP-L72A mutein: M18 I, G31 M, F55 M, A73 WT) Fatty acid-binding protein, …: AFDGTWKVDRNENYEKFIEKMGINVVKRKLMAHDNLKLTITQEGNKFTVKESSNMRNIDVVFELGVDFAYSAADGTELTGTWTMEGNKLVGKFKRVDNGKELIAVREISGNELIQTYTYEGVEAKRIFKKE | 1.4 | 1.1 | 0.3 | 1.1 | 1.4 | 0.6 | 1.0
7 | L2P22E6: acrylodan-labeled rI-FABP-L72A mutein: M18 V, G31 A, F55 I, A73 W (protein, UniProt P02693 2-132, looked up, variant M18V G31A F55I L72A A73W, acrylodan label, acrylodan-labeled rI-FABP-L72A mutein: M18 V, G31 A, F55 I, A73 W) Fatty acid-binding protein, …: AFDGTWKVDRNENYEKFVEKMGINVVKRKLAAHDNLKLTITQEGNKFTVKESSNIRNIDVVFELGVDFAYSAWDGTELTGTWTMEGNKLVGKFKRVDNGKELIAVREISGNELIQTYTYEGVEAKRIFKKE | 1.6 | 1.3 | 0.4 | 1.3 | 1.6 | 0.8 | 1.0
8 | L2P18H12: acrylodan-labeled rI-FABP-L72A mutein: M18 I, G31 V, F55 WT, A73 G (protein, UniProt P02693 2-132, looked up, variant M18I G31V L72A A73G, acrylodan label, acrylodan-labeled rI-FABP-L72A mutein: M18 I, G31 V, F55 WT, A73 G) Fatty acid-binding protein, …: AFDGTWKVDRNENYEKFIEKMGINVVKRKLVAHDNLKLTITQEGNKFTVKESSNFRNIDVVFELGVDFAYSAGDGTELTGTWTMEGNKLVGKFKRVDNGKELIAVREISGNELIQTYTYEGVEAKRIFKKE | 2.1 | 1.6 | 0.5 | 1.7 | 1.9 | 1.0 | 1.3
9 | L2P8A6: acrylodan-labeled rI-FABP-L72A mutein: M18 I, G31 V, F55 V, A73 V (protein, UniProt P02693 2-132, looked up, variant M18I G31V F55V L72A A73V, acrylodan label) Fatty acid-binding protein, …: AFDGTWKVDRNENYEKFIEKMGINVVKRKLVAHDNLKLTITQEGNKFTVKESSNVRNIDVVFELGVDFAYSAVDGTELTGTWTMEGNKLVGKFKRVDNGKELIAVREISGNELIQTYTYEGVEAKRIFKKE | 1.3 | 1.0 | 0.2 | 0.8 | 1.2 | 0.4 | 0.6
10 | L2P2E11: acrylodan-labeled rI-FABP-L72A mutein: M18 I, G31 F, F55 WT, A73 WT (protein, UniProt P02693 2-132, looked up, variant M18I G31F L72A, acrylodan label) Fatty acid-binding protein, …: AFDGTWKVDRNENYEKFIEKMGINVVKRKLFAHDNLKLTITQEGNKFTVKESSNFRNIDVVFELGVDFAYSAADGTELTGTWTMEGNKLVGKFKRVDNGKELIAVREISGNELIQTYTYEGVEAKRIFKKE | 2.6 | 2.0 | 0.8 | 2.5 | 2.8 | 1.6 | 1.9
11 | L2P23G7: acrylodan-labeled rI-FABP-L72A mutein: M18 V, G31 F, F55 L, A73 WT (protein, UniProt P02693 2-132, looked up, variant M18V G31F F55L L72A, acrylodan label, acrylodan-labeled rI-FABP-L72A mutein: M18 V, G31 F, F55 L, A73 WT) Fatty acid-binding protein, …: AFDGTWKVDRNENYEKFVEKMGINVVKRKLFAHDNLKLTITQEGNKFTVKESSNLRNIDVVFELGVDFAYSAADGTELTGTWTMEGNKLVGKFKRVDNGKELIAVREISGNELIQTYTYEGVEAKRIFKKE | 1.4 | 1.0 | 0.4 | 1.0 | 1.2 | 0.6 | 0.9
12 | L2P17H10: acrylodan-labeled rI-FABP-L72A mutein: M18 G, G31 F, F55 WT, A73 L (protein, UniProt P02693 2-132, looked up, variant M18G G31F L72A A73L, acrylodan label, acrylodan-labeled rI-FABP-L72A mutein: M18 G, G31 F, F55 WT, A73 L) Fatty acid-binding protein, …: AFDGTWKVDRNENYEKFGEKMGINVVKRKLFAHDNLKLTITQEGNKFTVKESSNFRNIDVVFELGVDFAYSALDGTELTGTWTMEGNKLVGKFKRVDNGKELIAVREISGNELIQTYTYEGVEAKRIFKKE | 1.2 | 1.0 | 1.7 | 1.5 | 1.2 | 1.4 | 1.8
13 | L2P22G6: acrylodan-labeled rI-FABP-L72A mutein: M18 I, G31 Y, F55 WT, A73 G (protein, UniProt P02693 2-132, looked up, variant M18I G31Y L72A A73G, acrylodan label, acrylodan-labeled rI-FABP-L72A mutein: M18 I, G31 Y, F55 WT, A73 G) Fatty acid-binding protein, …: AFDGTWKVDRNENYEKFIEKMGINVVKRKLYAHDNLKLTITQEGNKFTVKESSNFRNIDVVFELGVDFAYSAGDGTELTGTWTMEGNKLVGKFKRVDNGKELIAVREISGNELIQTYTYEGVEAKRIFKKE | 2.6 | 1.9 | 0.9 | 2.6 | 2.7 | 1.6 | 1.8
